Test results reported in doi:10.1101/2024.06.17.598829 (bioRxiv, 2024).
Several values for one entry are separate records, joined by “and”; a condition that tells them apart may be missing. Equal values may be shown once.

Target: the molecule itself
Assay: SEC

B1: MBP:NPH3-C104 (domain or fragment, Arabidopsis, UniProt Q9FMF5 643-746, looked up)
chain: PQSFQEGWAAAKKDINTLKFELETVKTKYVELQNEMEVMQRQFEKTGKVKNTPSSSAWTSGWKKLSKLTKMSGQESHDISSGGEQAGVDHPPPRKPRRWRNSIS
For B1, the “stoichiometry N” value was 3 and 6.
